The target in assay [1] is T1, recombinant human IL-18 (human, UniProt Q14116 37-193).
T1 construct: Commercial recombinant human IL-18; In the Luminex screening it was attached to beads; also called Interleukin-18; human interleukin-18
T1 sequence (looked up): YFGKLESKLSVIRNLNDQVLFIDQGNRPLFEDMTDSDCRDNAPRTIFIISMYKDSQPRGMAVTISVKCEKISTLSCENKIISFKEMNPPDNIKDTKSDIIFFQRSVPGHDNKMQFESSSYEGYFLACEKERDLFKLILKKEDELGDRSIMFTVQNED
Briefly: Luminex; biotinylated IL-18BP (competitor) on IL-18 beads pre-bound with the mAb; the signal is IL-18BP binding.

Assay [2] deals with T2, IL-18/IL-18BP complex (human, UniProt Q14116 37-193).
T2 construct: Complex of IL-18 with IL-18BP; in the third Luminex screening step IL-18BP was linked to the beads and then complexed to IL-18; Stoichiometry 1:1 is only cited from the literature; also called IL-18 previously complexed to IL-18BP; complex IL-18/IL-18BP
T2 sequence 1: T1 sequence (looked up)
T2 sequence 2: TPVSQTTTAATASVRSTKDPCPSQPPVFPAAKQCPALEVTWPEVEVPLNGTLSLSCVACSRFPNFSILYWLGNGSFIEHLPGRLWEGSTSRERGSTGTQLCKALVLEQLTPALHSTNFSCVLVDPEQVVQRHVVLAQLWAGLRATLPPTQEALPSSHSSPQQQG
The assay can be described thus: Luminex; mAb on IL-18 complexed to bead-linked IL-18BP.

The target in assay [3] is T2, IL-18/IL-18BP complex. Briefly: Luminex third screening against first screening.
In assay [4] the target is T1, recombinant human IL-18. The assay can be described thus: Luminex; mAb on IL-18 beads.

B1: Antibody 131E8 (antibody)
chain 1: QVQLKQSRPGPVQPSQSLSITCTVSGFSLPNYGVHWVRQPPGKGLEWLGVIWSGGSTDYNAAFKSRLSISKDNSKSQVFFKMNSLQADDTAIYYCARNFYSKYDYAMDYWGQGTSVTVSS
chain 2: QVQLQQPGSVLVRPGASVKLSCKASGYTFTSYWMHWVKQRPGQGLEWIGNINPNSGSTNYNEKFKGKATLTVDTSSSTAYMDLSSLTSEDSAVYYCARLGDYWGQGTTLTVSS
chain 3: ENVLTQSPAIMSASPGEKVTMTCSASSSVSYMHWYQQKSSTSPKLWIYDTSKLASGVPGRFSGSGSGNSYSLTISSMEAEDVATYYCFQGSGYPLTFGSGTKLEIK
Regarding B1, the “Fluorescence intensity (IL-18BP binding on IL-18 previously complexed to monoclonal antibody)” value in the assay with recombinant human IL-18 [1] was determined as 1390 fluorescence intensity. The Fluorescence intensity with IL-18/IL-18BP complex [2] stood at 36 fluorescence intensity; with recombinant human IL-18 [4], 25400 fluorescence intensity. Further, in the assay with IL-18/IL-18BP complex [3], the “fold inhibition of binding to IL-18 complexed to IL-18BP against binding to IL-18 alone” value was above 500 fold.

B2: Antibody 111A6 (antibody, V domains shown)
VH: EVQLQQSGAELVKPGASVKLSCTASGFKIKDTYIHWVIQRPAQGLEWIGRIDPANGNTIYGSKFQGKATLTADTSSNTAYIHLSSLTSGDSAVYYCAGYVWFAYWGQGTLVTVSA
VL: DVVMTQVPLSLPVSLGDQASISCRSSQRLVHSNGNTYLHWFLQKPGQSPKLLIYTVSNRFSGVPDRFSGSGSGTDFTLKISRVEAEDLGVYFCSQSTLVPWTFGGGTKLEIK
Consider B2, for which the “Fluorescence intensity (IL-18BP binding on IL-18 previously complexed to monoclonal antibody)” value in the assay with recombinant human IL-18 [1] was 1400 fluorescence intensity. The Fluorescence intensity in the assay with IL-18/IL-18BP complex [2] was found to be 42 fluorescence intensity; with recombinant human IL-18 [4], 25900 fluorescence intensity.

Values taken from patent US20160215048A1 (published 2016).
